Measurements: patent US20240218060A1 (Hoffmann-La Roche, published 2024)

Molecular target: T1, human neonatal Fc-receptor (FcRn) (human, UniProt P55899 24-297; P61769 21-119)
T1 construct: also called human FcRn; huFcRn
Test: SPR (BIAcore T100), FcRn immobilised on a CM5 chip, 200 nM antibody, PBS 0.05% Tween20 pH 6.0
Experimental: The binding properties of wild-type antibody and the mutants to FcRn were analyzed by surface plasmon resonance (SPR) technology using a BIAcore T100 instrument (BIAcore AB, Uppsala, Sweden). […] In the current assay, the FcRn receptor was immobilized onto a BIAcore CM5-biosensor chip (GE Healthcare Bioscience, Uppsala, Sweden) via amine coupling to a level of 400 Response units (RU). The assay was carried out at room temperature with PBS, 0.05% Tween20 pH 6.0 (GE Healthcare Bioscience) as running and dilution buffer. 200 nM of samples were injected at a flow rate of 50 μL/min at room temperature. Association time was 180 sec., dissociation phase took 360 sec. Regeneration of the chip surface was reached by a short injection of HBS-P, pH 8.0. Evaluation of SPR-data was performed by comparison of the biological response signal height at 180 sec. after injection and at 300 sec. after injection. The corresponding parameters are the RU max level (180 sec. after injection) and late stability (300 sec. after end of injection).

- binding result: binds
B1: YTE-mutant of anti-IGF-1R antibody (antibody, human IgG1, kappa)
light: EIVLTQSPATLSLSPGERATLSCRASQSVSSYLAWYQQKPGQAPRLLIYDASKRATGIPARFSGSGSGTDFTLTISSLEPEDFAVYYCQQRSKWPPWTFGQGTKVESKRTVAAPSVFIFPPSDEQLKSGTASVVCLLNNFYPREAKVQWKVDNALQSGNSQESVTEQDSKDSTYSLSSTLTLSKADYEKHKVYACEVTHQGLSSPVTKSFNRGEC
heavy: QVELVESGGGVVQPGRSQRLSCAASGFTFSSYGMHWVRQAPGKGLEWVAIIWFDGSSTYYADSVRGRFTISRDNSKNTLYLQMNSLRAEDTAVYFCARELGRRYFDLWGRGTLVSVSSASTKGPSVFPLAPSSKSTSGGTAALGCLVKDYFPEPVTVSWNSGALTSGVHTFPAVLQSSGLYSLSSVVTVPSSSLGTQTYICNVNHKPSNTKVDKKVEPKSCDKTHTCPPCPAPELLGGPSVFLFPPKPKDTLYITREPEVTCVVVDVSHEDPEVKFNWYVDGVEVHNAKTKPREEQYNSTYRVVSVLTVLHQDWLNGKEYKCKVSNKALPAPIEKTISKAKGQPREPQVYTLPPSRDELTKNQVSLTCLVKGFYPSDIAVEWESNGQPENNYKTTPPVLDSDGSFFLYSKLTVDKSRWQQGNVFSCSVMHEALHNHYTQKSLSLSPG
notes: also called <IGF-1R> IgG1 with M252Y, S254T, T256E; anti-IGF-1R IgG1 with YTE mutation
